Experimental findings from publication PMC12084297, “Cytoplasmic connexin43-microtubule interactions promote glioblastoma stem-like cell maintenance and tumorigenicity” (Cell Death & Disease, 2025) are described below.

One may read the EC50 as the concentration at which the effect is half-maximal.

For test [1], the target named is α-tubulin (human (endogenous in VTC-037 GSCs), UniProt P68363 1-451). In words: cellular thermal shift assay (CETSA); fresh VTC-037 GSC lysates in non-denaturing buffer treated 1 h with 3-fold dilutions (222.2, 74.0, 24.7, 8.2 and 2.7 nM) of peptide, heat challenge at 57 °C for 20 min, centrifugation, immunoblot of the stable protein normalised to DMSO control; EC50 of target engagement. The settings on record: one partner purified. Background: In western blotting, separated proteins are transferred to a membrane and probed.

The target of test [2] is β-tubulin (human (endogenous in VTC-001 and …, UniProt P07437 1-444)). Described as above. The settings on record: one partner purified.

Ends that are not written are not given here. * marks the point of attachment. Biotin = O=C1N[C@H]2[C@H](CS[C@H]2CCCCC(=O)*)N1

Sequence of β-tubulin (human (P07437 whole entry): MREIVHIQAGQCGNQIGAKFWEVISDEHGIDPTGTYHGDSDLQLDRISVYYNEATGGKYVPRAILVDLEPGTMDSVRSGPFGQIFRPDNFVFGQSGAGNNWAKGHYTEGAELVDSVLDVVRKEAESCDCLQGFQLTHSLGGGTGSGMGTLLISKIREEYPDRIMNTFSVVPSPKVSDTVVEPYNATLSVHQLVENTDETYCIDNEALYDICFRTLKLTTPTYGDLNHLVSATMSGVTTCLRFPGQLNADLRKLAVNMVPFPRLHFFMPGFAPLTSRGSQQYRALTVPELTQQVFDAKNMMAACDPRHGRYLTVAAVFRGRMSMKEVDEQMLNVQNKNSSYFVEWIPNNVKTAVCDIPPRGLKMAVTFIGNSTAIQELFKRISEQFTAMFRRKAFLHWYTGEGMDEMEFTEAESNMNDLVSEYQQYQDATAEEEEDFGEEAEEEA
Sequence of α-tubulin (P68363 whole entry): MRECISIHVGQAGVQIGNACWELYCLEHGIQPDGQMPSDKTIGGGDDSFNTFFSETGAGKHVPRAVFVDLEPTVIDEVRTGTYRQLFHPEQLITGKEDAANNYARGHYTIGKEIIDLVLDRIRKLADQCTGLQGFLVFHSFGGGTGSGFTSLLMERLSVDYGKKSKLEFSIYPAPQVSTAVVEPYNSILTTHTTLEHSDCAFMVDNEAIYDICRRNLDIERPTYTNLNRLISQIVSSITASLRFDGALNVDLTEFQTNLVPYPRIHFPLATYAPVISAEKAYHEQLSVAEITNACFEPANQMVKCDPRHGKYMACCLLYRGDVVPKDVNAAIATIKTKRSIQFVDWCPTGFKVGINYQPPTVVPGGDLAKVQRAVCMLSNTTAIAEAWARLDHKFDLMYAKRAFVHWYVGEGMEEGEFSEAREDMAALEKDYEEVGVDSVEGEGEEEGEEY

On to Biotin-RQPKIWFPNRRKPWKKGSDVFKRKFVDRKVG [JM2-scrambled peptide], for which the EC50 in test [1] and in test [2] was over 200 nM each time.
